Paper PMC5558127, “Plant Glyoxylate/Succinic Semialdehyde Reductases: Comparative Biochemical Properties, Function during Chilling Stress, and Subcellular Localization” (Frontiers in Plant Science, 2017)

Columns and labels:
Assay in all cases: NADPH oxidation, absorbance microplate reader
AtGLYR1 = biological target: T1, AtGLYR1 (Arabidopsis thaliana, UniProt Q9LSV0); type: biochemical; details: 50 μM NADPH fixed; pH optimum of the enzyme, MES/HEPES/TABS 50 mM each; room temperature
T1 construct: gene GLYR1
T1 sequence (Q9LSV0 1-289): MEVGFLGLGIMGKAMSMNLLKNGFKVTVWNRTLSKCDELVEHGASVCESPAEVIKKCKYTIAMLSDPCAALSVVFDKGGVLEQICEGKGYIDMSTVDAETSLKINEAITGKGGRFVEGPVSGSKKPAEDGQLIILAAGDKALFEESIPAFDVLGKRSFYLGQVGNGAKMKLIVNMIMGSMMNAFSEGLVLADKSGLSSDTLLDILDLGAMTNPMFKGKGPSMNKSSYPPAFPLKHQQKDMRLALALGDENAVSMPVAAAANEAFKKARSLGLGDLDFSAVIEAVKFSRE
Text: NADPH oxidation, absorbance microplate reader on AtGLYR1

AtGLYR2 (AtGLYR2Δ58) = biological target: T2, AtGLYR2 (AtGLYR2Δ58) (Arabidopsis thaliana, UniProt F4I907); type: biochemical; details: 50 μM NADPH fixed; pH optimum of the enzyme, MES/HEPES/TABS 50 mM each; room temperature
T2 construct: gene GLYR2
T2 sequence (F4I907 59-358): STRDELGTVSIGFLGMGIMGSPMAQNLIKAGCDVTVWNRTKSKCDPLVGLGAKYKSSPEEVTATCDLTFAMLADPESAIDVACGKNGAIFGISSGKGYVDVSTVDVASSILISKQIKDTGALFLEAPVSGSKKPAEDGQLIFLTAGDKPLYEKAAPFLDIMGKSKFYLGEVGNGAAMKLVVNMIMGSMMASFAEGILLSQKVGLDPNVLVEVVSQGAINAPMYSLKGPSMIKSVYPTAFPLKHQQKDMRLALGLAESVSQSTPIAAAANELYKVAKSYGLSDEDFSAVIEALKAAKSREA
Text: NADPH oxidation, absorbance microplate reader on AtGLYR2 (AtGLYR2Δ58)

MdGLYR2 (MdGLYR2Δ54) = biological target: T3, MdGLYR2 (MdGLYR2Δ54) (Malus domestica, UniProt A0A1C8M593); type: biochemical; details: 50 μM glyoxylate, 50 μM NADPH, NADP+ varied 0-0.5 mM
T3 construct: N-terminal targeting peptide removed (Δ54)

MdGLYR1 = MdGLYR1 (Malus domestica, UniProt A0A1C8M582); type: biochemical; details: 50 μM glyoxylate, 50 μM NADPH, NADP+ varied 0-0.5 mM
[1] = substrate: NC(=O)C1=CN([C@@H]2O[C@H](COP(=O)(O)OP(=O)(O)OC[C@H]3O[C@@H](n4cnc5c(N)ncnc54)[C@H](OP(=O)(O)O)[C@@H]3O)[C@@H](O)[C@H]2O)C=CC1; type: biochemical, Malus domestica; details: 50 μM glyoxylate fixed; pH optimum of the enzyme, MES/HEPES/TABS 50 mM each; room temperature; varied: cofactor
Text: (§1) NADPH oxidation, absorbance microplate reader on MdGLYR2 (MdGLYR2Δ54)

[2] = substrate: O=CC(=O)O; type: biochemical, Malus domestica; details: 50 μM NADPH fixed; pH optimum of the enzyme, MES/HEPES/TABS 50 mM each; room temperature
Text: as §1

[3] = substrate: O=CCCC(=O)O; type: biochemical, Malus domestica; details: 50 μM NADPH fixed; pH optimum of the enzyme, MES/HEPES/TABS 50 mM each; room temperature
Text: as §1

[4] = substrate: NC(=O)C1=CN([C@@H]2O[C@H](COP(=O)(O)OP(=O)(O)OC[C@H]3O[C@@H](n4cnc5c(N)ncnc54)[C@H](OP(=O)(O)O)[C@@H]3O)[C@@H](O)[C@H]2O)C=CC1; type: biochemical, Malus domestica; details: 50 μM glyoxylate fixed; pH optimum of the enzyme, MES/HEPES/TABS 50 mM each; room temperature; varied: cofactor; remark: listed apart in the source
Text: (§2) NADPH oxidation, absorbance microplate reader on MdGLYR1

[5] = substrate: O=CC(=O)O; type: biochemical, Malus domestica; details: 50 μM NADPH fixed; pH optimum of the enzyme, MES/HEPES/TABS 50 mM each; room temperature; remark: listed apart in the source
Text: as §2

[6] = substrate: O=CCCC(=O)O; type: biochemical, Malus domestica; details: 50 μM NADPH fixed; pH optimum of the enzyme, MES/HEPES/TABS 50 mM each; room temperature; remark: listed apart in the source
Text: as §2

Molecule: O=CC(=O)O [glyoxylate]
- Km (AtGLYR1): 23.2 ± 3.2 µM
- Km (AtGLYR2 (AtGLYR2Δ58)): 19.3 ± 4 µM

Molecule: NC(=O)c1ccc[n+]([C@@H]2O[C@H](COP(=O)(O)OP(=O)(O)OC[C@H]3O[C@@H](n4cnc5c(N)ncnc54)[C@H](OP(=O)(O)O)[C@@H]3O)[C@@H](O)[C@H]2O)c1 [NADP+]
- % inhibition at NADP+/NADPH ratio of 5 (MdGLYR2 (MdGLYR2Δ54)): ~ 50%
- % inhibition at NADP+/NADPH ratio of 5 (MdGLYR1): ~ 50%

B1: MdGLYR2 (MdGLYR2Δ54) (Malus domestica) (protein)
chain: ASSKDELPARVGFLGLGIMGSPMAQNLIKSGCDVTVWNRTKSKCDPLISLGAKYKPSPEEVAASCDVTFAMLADPESAVAVALGKHGAANGMSSGKGYVDVSTVDVATSKLIGGNIKATGASFLEAPVSGSKKPAEDGQLIFLTAGDKSLYETVASLLDIMGKSRFYLGEVGNGAAMKLVVNMIMGSMMASFSEGLLLTEKIGLDPKVLVEVVSQGAISAPMYSMKGPSMIQSVYPTAFPLKHQQKDMRLALGLAESVSQSTPIAAAANELYKVAKSHGLSDEDFSAVIEALKPKLKH
notes: N-terminal targeting peptide removed (Δ54)
- Km [1]: 1.8 ± 0.5 µM
- Vmax [1]: 28.2 µmol/min/mg
- kcat [1]: 15.7 ± 1.5 s⁻¹
- kcat/Km [1]: 1.01e+07 ± 2.28e+06 M⁻¹ s⁻¹
- Km [2]: 23.9 ± 1.9 µM
- Vmax [2]: 34.3 µmol/min/mg
- kcat [2]: 19.1 ± 2.1 s⁻¹
- kcat/Km [2]: 796000 ± 33000 M⁻¹ s⁻¹
- Km [3]: 6500 ± 327 µM
- Vmax [3]: 18.6 µmol/min/mg
- kcat [3]: 10.3 ± 1.9 s⁻¹
- kcat/Km [3]: 1600 ± 200 M⁻¹ s⁻¹

B2: MdGLYR1 (Malus domestica) (protein)
chain: MEVGFLGLGIMGKAMSMNLLRHGFKVTVWNRTLSKSHELVEHGASVAETPAEVVRKCKYTIAMLSDPSAALSVVFGKDGILEQICAGKSYVDMSTVDADTSSKINEAIKERGGYFLEAPVSGSKKPAEDGQLVILAAGEKALYEEVIPAFNVMGKKSFYLGQVGNGAKMKLVVNMIMGSMMNAFSEGLVLAGRSGLEPSVLLDVLDLGGIANPMFRLKGPTMIQGSHSPAFPLKHQQKDMRLALALGDETATSMPVAAAANEAFKKARSMGLGDLDFSAVYETVKTLEEPSRNSQLR
- Km [4]: 3.3 ± 0.5 µM
- Vmax [4]: 39.4 µmol/min/mg
- kcat [4]: 22.3 ± 3.4 s⁻¹
- kcat/Km [4]: 6.8e+06 ± 278000 M⁻¹ s⁻¹
- Km [5]: 14.1 ± 2.1 µM
- Vmax [5]: 54.7 µmol/min/mg
- kcat [5]: 30.9 ± 3.8 s⁻¹
- kcat/Km [5]: 2.23e+06 ± 153000 M⁻¹ s⁻¹
- Km [6]: 1133 ± 273 µM
- Vmax [6]: 8.1 µmol/min/mg
- kcat [6]: 4.6 ± 1.6 s⁻¹
- kcat/Km [6]: 5100 ± 2300 M⁻¹ s⁻¹
